According to patent US7977313B2, “Methods and compositions for promoting localization of pharmaceutically active agents to bone” (Affinergy, Inc., priority 2007, dated 2011):
Where two headings read alike, the source gives them in different places. Values belong to the compound of their own block, whether it stands above or below them. Where a SMILES comes first, the peptide text is derived from it. The star is where a group is joined. Biotin = O=C1N[C@H]2[C@H](CS[C@H]2CCCCC(=O)*)N1

Assays:
BMP14 = target: T1, BMP14 (Homo sapiens, UniProt P43026); experiment: ELISA-format binding to BMP family members; details: ELISA-format assay
T1 sequence (P43026 382-501): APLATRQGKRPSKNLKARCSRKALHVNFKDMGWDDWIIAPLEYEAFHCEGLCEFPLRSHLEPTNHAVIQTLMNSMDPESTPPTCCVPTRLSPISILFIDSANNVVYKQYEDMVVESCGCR
Experimental: (§1) Exemplary peptides were tested for their ability to bind with specificity to members of the BMP family in an ELISA-format assay. […] For example, BMP2-mediates transdifferentiation of C2C12 myoblasts into osteoblasts; and when treated with BMP-2, the alkaline phosphatase activity in C2C12 myoblasts was induced.

BMP2 = target: T2, BMP2 (Homo sapiens, UniProt P12643); experiment: ELISA-format binding to BMP family members; details: ELISA-format assay
T2 sequence (P12643 283-396): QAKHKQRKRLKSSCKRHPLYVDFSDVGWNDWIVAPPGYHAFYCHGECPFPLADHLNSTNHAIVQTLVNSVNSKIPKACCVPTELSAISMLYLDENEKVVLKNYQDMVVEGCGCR
Experimental: as §1

BMP4 = target: T3, BMP4 (Homo sapiens, UniProt P12644); experiment: ELISA-format binding to BMP family members; details: ELISA-format assay
T3 sequence (P12644 293-408): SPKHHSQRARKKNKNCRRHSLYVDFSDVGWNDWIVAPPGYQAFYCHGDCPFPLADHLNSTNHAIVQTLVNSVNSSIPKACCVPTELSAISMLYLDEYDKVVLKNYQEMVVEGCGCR
Experimental: as §1

BMP7 = target: T4, BMP7 (Homo sapiens, UniProt P18075); experiment: ELISA-format binding to BMP family members; details: ELISA-format assay
T4 sequence (P18075 293-431): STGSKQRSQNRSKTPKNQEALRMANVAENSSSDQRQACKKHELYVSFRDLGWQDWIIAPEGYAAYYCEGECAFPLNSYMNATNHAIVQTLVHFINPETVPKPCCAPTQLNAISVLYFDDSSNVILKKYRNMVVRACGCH
Experimental: as §1

[1] = target: demineralized bone matrix (DBM); experiment: Biotinylated peptide binding to demineralized bone matrix (ELISA-type, streptavidin-alkaline phosphatase/pNPP); set-up: species or system human
Experimental: Relative binding strengths of the peptides to bone, also used as a measure of binding specificity, were determined by testing serial dilutions of the peptide for binding to bone, as represented by DBM. Plotting the absorbance observed across the concentration range for each peptide sequence yielded a binding curve of the peptides to its target substrate from which can be determined an EC50. The goal of the screenings and selections was to identify one or more peptides that bind to the selected substrate with binding specificity, with an EC50 of less than or equal to about 10 μM, and for some embodiments, in the nanomolar range (<1 μM).
As a specific example, DBM was placed in a microtiter plate at a concentration of 3 mg equivalents per well, and then the wells were blocked with buffer containing 1% BSA for 1 hour at room temperature. The buffer containing 1% BSA was then aspirated from each well, and added to the wells were the serial dilutions of biotinylated peptide. The microtiter plates were incubated for 1 hour at room temperature on a plate shaker. The DBM was then allowed to settle, and the buffer was then aspirated from the wells. The DBM was washed three times with buffer-T, and then streptavidin-alkaline phosphatase was added. The microtiter plates were incubated for 1 hour at room temperature on a plate shaker. The DBM was then allowed to settle, and the buffer was then aspirated from the wells. The DBM was washed three times with buffer-T, pNPP (p-nitrophenyl phosphate) was used to develop the assay, and the absorbance was recorded at 405 nm. An estimate of the relative affinity (binding specificity, EC50) of a peptide for bone can be made by determining the concentration of peptide that gives one-half the maximal signal in the assay.
Example 1 illustrates methods to determine the relative binding strengths of peptide to bone. […] A biotin molecule was linked to the C-terminal lysine. Also shown in Table 3 are the relative binding strengths expressed as EC50 (μM) to bone as represented by DBM of human origin. It is noted that the EC50 values were the same or substantially similar when DBM of rabbit origin was used.
Relative binding strength embodiments of the compositions to bone, also used as a measure of binding specificity, were determined by testing serial dilutions of the composition for binding to bone, as described in Example 1 Section B. Plotting the absorbance observed across the concentration range for each composition yielded a binding curve and rough dissociation constant of the composition for bone. Similar to a peptide having binding specificity for bone from which the composition is made, one property of the composition embodiments is that they bind to bone with binding specificity as measured by an EC50 of less than or equal to about 10 μM, and for some embodiments, in the nanomolar range (<1 μM). Using the methods outlined in Example 1B herein, assayed were the relative binding strengths of […] illustrative composition embodiments which include the amino acid sequences shown in SEQ ID NOs: 137, 138, 139, 140, 141 & 142, see Table 7, and synthesized to include a C-terminal amino linker which was biotinylated to facilitate determination of the relative binding strengths to bone. Shown in Table 8 are the relative binding strengths of composition embodiments to bone, as represented by DBM, expressed as EC50 (in μM).

[2] = target: demineralized cortical bone (DCB); experiment: Biotinylated peptide binding to demineralized cortical bone
Experimental: (§2) Relative binding strengths of the peptides to bone, also used as a measure of binding specificity, were determined by testing serial dilutions of the peptide for binding to bone, as represented by DBM. Plotting the absorbance observed across the concentration range for each peptide sequence yielded a binding curve of the peptides to its target substrate from which can be determined an EC50. The goal of the screenings and selections was to identify one or more peptides that bind to the selected substrate with binding specificity, with an EC50 of less than or equal to about 10 μM, and for some embodiments, in the nanomolar range (<1 μM). […] As a specific example, DBM was placed in a microtiter plate at a concentration of 3 mg equivalents per well, and then the wells were blocked with buffer containing 1% BSA for 1 hour at room temperature. The buffer containing 1% BSA was then aspirated from each well, and added to the wells were the serial dilutions of biotinylated peptide. The microtiter plates were incubated for 1 hour at room temperature on a plate shaker. The DBM was then allowed to settle, and the buffer was then aspirated from the wells. The DBM was washed three times with buffer-T, and then streptavidin-alkaline phosphatase was added. The microtiter plates were incubated for 1 hour at room temperature on a plate shaker. The DBM was then allowed to settle, and the buffer was then aspirated from the wells. The DBM was washed three times with buffer-T, pNPP (p-nitrophenyl phosphate) was used to develop the assay, and the absorbance was recorded at 405 nm. An estimate of the relative affinity (binding specificity, EC50) of a peptide for bone can be made by determining the concentration of peptide that gives one-half the maximal signal in the assay. Using the methodology illustrated in Example 1, the peptides illustrated in Table 3 were also tested for relative binding strength to demineralized cortical bone, and to cancellous bone, additional evidence of binding specificity for bone.

cancellous bone (CNB) = experiment: Biotinylated peptide binding to cancellous bone
Experimental: as §2

human growth hormone = human growth hormone (Homo sapiens, UniProt P01241); details: cited from earlier work
[3] = phage display; cited from earlier work
stem cells = details: cited from earlier work
BMP5 = target: T5, BMP5 (Homo sapiens, UniProt P22003); experiment: ELISA-format binding to BMP family members; details: ELISA-format assay
T5 sequence (P22003 317-454): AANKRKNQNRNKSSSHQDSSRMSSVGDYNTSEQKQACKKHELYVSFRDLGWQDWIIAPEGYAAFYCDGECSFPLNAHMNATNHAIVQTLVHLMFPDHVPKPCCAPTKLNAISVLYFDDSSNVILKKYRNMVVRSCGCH
Experimental: as §1

[4] = system: human adipose-derived stem cells; experiment: Binding to adipose-derived stem cells
Description: In another embodiment, the pharmaceutically active agent comprises a cell. Thus, a coating composition embodiment includes at least one peptide having binding specificity to bone coupled to at least one peptide having binding specificity for cells. Such coating composition may further include cells bound to the at least one peptide having binding specificity for the cells. For example, RGDX peptides wherein X is any amino acid (SEQ ID NO:119) have been described as binding stem cells, mesenchymal stem cells, and osteoblasts.

[5] = DBM of human origin, biotinylated peptide, read-out: Binding specificity for bone (e.g., DBM) EC50
[6] = demineralized bone matrix, read-out: EC50 (μM) for DBM

human growth hormone, sequence (P01241 27-217): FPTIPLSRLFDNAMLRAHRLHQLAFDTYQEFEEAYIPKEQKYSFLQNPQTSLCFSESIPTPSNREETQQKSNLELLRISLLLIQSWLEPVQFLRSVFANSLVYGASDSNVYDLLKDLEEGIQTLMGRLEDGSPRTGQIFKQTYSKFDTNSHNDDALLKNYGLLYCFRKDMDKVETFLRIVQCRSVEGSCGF

Compound: CC(C)C[C@H](NC(=O)[C@@H](N)CO)C(=O)NCC(=O)N[C@H](C(=O)N[C@@H](Cc1ccccc1)C(=O)N[C@@H](Cc1c[nH]c2ccccc12)C(=O)N[C@@H](CO)C(=O)N[C@@H](CO)C(=O)N[C@H](C(=O)N[C@@H](Cc1c[nH]c2ccccc12)C(=O)N[C@@H](CCCNC(=N)N)C(=O)NCC(=O)N[C@H](C(=O)N[C@@H](CC(=O)O)C(=O)N[C@@H](C)C(=O)NCC(=O)NCC(=O)N[C@@H](CCC(=O)O)C(=O)N[C@@H](CO)C(=O)N[C@@H](CCCNC(=N)N)C(=O)NCC(=O)N[C@@H](CO)C(=O)N[C@@H](CO)C(=O)NCC(=O)N[C@@H](CCCCNC(=O)CCCC[C@@H]1SC[C@@H]2NC(=O)N[C@@H]21)C(=O)O)C(C)C)C(C)C)[C@@H](C)O [compound 43] (H-SLGTFWSSVWRGVDAGGESRGSSGK(Biotin)-OH)
EC50 [1, 5]: < 1 µM
EC50 [1, 6]: < 1 µM
EC50 [2]: < 1 µM
EC50 (cancellous bone (CNB)): ≤ 1 µM

Compound: 124 (VMNV) [compound 124]
Binding to human growth hormone (human growth hormone): found to bind to human growth hormone

Compound: CC(C)C[C@H](NC(=O)[C@H](CO)NC(=O)[C@H](CCCNC(=N)N)NC(=O)[C@H](Cc1ccccc1)NC(=O)[C@H](CC(=O)O)NC(=O)[C@H](Cc1c[nH]c2ccccc12)NC(=O)[C@@H](N)CO)C(=O)N[C@@H](CCCNC(=N)N)C(=O)N[C@@H](CC(=O)O)C(=O)N[C@@H](Cc1c[nH]c2ccccc12)C(=O)N[C@@H](Cc1c[nH]c2ccccc12)C(=O)N1CCC[C@H]1C(=O)N1CCC[C@H]1C(=O)N[C@@H](C)C(=O)N1CCC[C@H]1C(=O)N[C@@H](CO)C(=O)N[C@@H](CC(C)C)C(=O)N[C@@H](CO)C(=O)N[C@@H](CO)C(=O)N[C@@H](CCCNC(=N)N)C(=O)NCC(=O)N[C@@H](CO)C(=O)N[C@@H](CO)C(=O)NCC(=O)N[C@@H](CCCCNC(=O)CCCC[C@@H]1SC[C@@H]2NC(=O)N[C@@H]21)C(=O)O [compound 45] (H-SWDFRSLRDWWPPAPSLSSRGSSGK(Biotin)-OH)
EC50 [1, 5]: < 1 µM
EC50 [1, 6]: < 1 µM
EC50 [2]: < 1 µM
EC50 (cancellous bone (CNB)): < 1 µM

Compound: 123 (HTPHPDASIQGV) [compound 123]
Binding to paclitaxel [3]: bind to paclitaxel

Compound: 120 (ALPSTSSQMPQL) [compound 120]
Binding to stem cells (stem cells): binding to stem cells

Compound: CC[C@H](C)[C@H](NC(=O)[C@H](CC(=O)O)NC(=O)[C@H](Cc1ccccc1)NC(=O)[C@@H](N)CO)C(=O)N[C@@H](CC(=O)O)C(=O)N[C@@H](Cc1c[nH]c2ccccc12)C(=O)N[C@@H](CO)C(=O)NCC(=O)N[C@@H](CCSC)C(=O)N[C@@H](CCCNC(=N)N)C(=O)N[C@@H](CO)C(=O)N[C@@H](Cc1c[nH]c2ccccc12)C(=O)N[C@@H](Cc1c[nH]c2ccccc12)C(=O)NCC(=O)N[C@@H](CO)C(=O)N[C@@H](CCCNC(=N)N)C(=O)NCC(=O)N[C@@H](CO)C(=O)N[C@@H](CO)C(=O)NCC(=O)N[C@@H](CCCCNC(=O)CCCC[C@@H]1SC[C@@H]2NC(=O)N[C@@H]21)C(=O)O [compound 44] (H-SFDIDWSGMRSWWGSRGSSGK(Biotin)-OH)
EC50 [1, 5]: < 1 µM
EC50 [1, 6]: < 1 µM
EC50 [2]: < 1 µM
EC50 (cancellous bone (CNB)): < 1 µM

Compound: 121 (SSSCQHVSLLRPSAALGPDNCSR) [compound 121]
Binding specificity for human adipose-derived stem cells [4]: has binding specificity

Other lines, results leading:

Binding specificity for BMP14 (BMP14): showed binding specificity
Binding specificity for BMP2 (BMP2): showed binding specificity
Binding specificity for BMP4 (BMP4): showed binding specificity
Binding specificity for BMP7 (BMP7): showed binding specificity
Compound: 93 (SSSVDLYFPLKGDVVSR) [compound 93]

Binding specificity for BMP14 (BMP14): showed binding specificity
Binding specificity for BMP2 (BMP2): showed binding specificity
Binding specificity for BMP4 (BMP4): showed binding specificity
Binding specificity for BMP7 (BMP7): showed binding specificity
Compound: 58 (SSWEVFSSLESGSVGAGAGSR) [compound 58]

Binding specificity for BMP14 (BMP14): showed binding specificity
Binding specificity for BMP2 (BMP2): showed binding specificity
Binding specificity for BMP4 (BMP4): showed binding specificity
Binding specificity for BMP7 (BMP7): showed binding specificity
Compound: 118 (GGALGFPLKGEVVEGWA) [compound 118]

Binding specificity for BMP14 (BMP14): displayed binding specificity
Binding specificity for BMP2 (BMP2): displayed binding specificity
Binding specificity for BMP4 (BMP4): displayed binding specificity
Binding specificity for BMP5 (BMP5): displayed binding specificity
Binding specificity for BMP7 (BMP7): displayed binding specificity
Compound: 91 (GGGAWEAFSSLSGSRV) [compound 91]
